This is an account of results in the supplement of paper PMC9112550, “Optimization of the antimicrobial peptide Bac7 by deep mutational scanning” (BMC Biology, 2022).

The series has as its system Escherichia coli TOP10. The series can be described thus: shrunken log2 fold change of peptide-encoding DNA abundance (4.5 h post-induction vs induction); higher = less antimicrobial activity (less host growth inhibition). To be noted: time post-induction: 4.5 h; library: site-saturation at positions 5, 18, 19, 20.
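Note: peptides expressed intracellularly from a pBAD plasmid library in pooled LB shake-flask culture, induced with 0.3% L-arabinose, DNA abundance read by NGS, three biological replicates, DESeq2 with apeglm shrinkage.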

Turning to RRIRNRPPRLPRPRPRPPKWPRP, the “shrunken log2 fold change” value was 0.411. On to RRIRSRPPRLPRPRPRPGVPPRP, for which the “shrunken log2 fold change” value is 0.318. With RRIRGRPPRLPRPRPRPWHSPRP, the “shrunken log2 fold change” value stood at 0.0143.

As for RRIRPRPPRLPRPRPRPLCPPRP, the “shrunken log2 fold change” value was -0.128.

RRIRNRPPRLPRPRPRPMQTPRP: the “shrunken log2 fold change” value was -0.00987. For RRIRTRPPRLPRPRPRPPRDPRP, the “shrunken log2 fold change” value was determined as 0.4. As to RRIRNRPPRLPRPRPRPDRDPRP, the “shrunken log2 fold change” value turned out to be 0.0416. RRIRSRPPRLPRPRPRPECYPRP: the “shrunken log2 fold change” value worked out at 0.133. For RRIRMRPPRLPRPRPRPNNIPRP, the “shrunken log2 fold change” value was -0.564. The result for RRIRLRPPRLPRPRPRPVIMPRP reads -0.0794; that for RRIRDRPPRLPRPRPRPVLYPRP, -0.166; that for RRIRMRPPRLPRPRPRPINKPRP, -0.375.

With RRIRARPPRLPRPRPRPGNRPRP, the “shrunken log2 fold change” value is 0.0467. To RRIRVRPPRLPRPRPRPWMRPRP belongs 0.731; to RRIRCRPPRLPRPRPRPYFSPRP, -0.135. With RRIRERPPRLPRPRPRPSEVPRP, the “shrunken log2 fold change” value was -0.12. The result for RRIRKRPPRLPRPRPRPAVRPRP reads 0.951; that for RRIRARPPRLPRPRPRPIKWPRP, 0.235. RRIRIRPPRLPRPRPRPPTYPRP: the “shrunken log2 fold change” value was -0.427. To RRIRIRPPRLPRPRPRPTVVPRP belongs -0.0277. The result for RRIRRRPPRLPRPRPRPQQAPRP reads 0.115. The result for RRIRQRPPRLPRPRPRPGMFPRP reads 0.00926. As for RRIRWRPPRLPRPRPRPCHSPRP, the “shrunken log2 fold change” value was -0.286. In the case of RRIRVRPPRLPRPRPRPTEVPRP, the “shrunken log2 fold change” value was found to be 0.0934.

Consider RRIRIRPPRLPRPRPRPMKNPRP, for which the “shrunken log2 fold change” value was -0.359. The result for RRIRPRPPRLPRPRPRPEQDPRP reads 0.0894; that for RRIRCRPPRLPRPRPRPHSYPRP, -0.272. The result for RRIRKRPPRLPRPRPRPNNHPRP reads -0.469; that for RRIRLRPPRLPRPRPRPDDTPRP, -0.0691. On to RRIRTRPPRLPRPRPRPFRQPRP, for which the “shrunken log2 fold change” value is 0.0156.

For the sequence RRIRYRPPRLPRPRPRPTLQPRP, the “shrunken log2 fold change” value came out at 0.201. As to RRIRGRPPRLPRPRPRPKDCPRP, the “shrunken log2 fold change” value worked out at 0.427.

Take RRIRARPPRLPRPRPRPPMGPRP: the “shrunken log2 fold change” value was 0.358.

Consider RRIRKRPPRLPRPRPRPVLVPRP, for which the “shrunken log2 fold change” value was -0.0465.

RRIRWRPPRLPRPRPRPECTPRP: the “shrunken log2 fold change” value stood at 0.255. Regarding RRIRGRPPRLPRPRPRPVLQPRP, the “shrunken log2 fold change” value amounted to 0.142. Regarding RRIRTRPPRLPRPRPRPADAPRP, the “shrunken log2 fold change” value was -0.0445. To RRIRGRPPRLPRPRPRPFQIPRP belongs -0.0147; to RRIRNRPPRLPRPRPRPHRFPRP, 0.0175; to RRIRPRPPRLPRPRPRPNAMPRP, -0.324. The result for RRIRARPPRLPRPRPRPTEGPRP reads 0.941; that for RRIRTRPPRLPRPRPRPETEPRP, -0.016; that for RRIRMRPPRLPRPRPRPWICPRP, 0.0396. The result for RRIRYRPPRLPRPRPRPKLYPRP reads -0.65; that for RRIRIRPPRLPRPRPRPGTKPRP, -0.0997. Turning to RRIRWRPPRLPRPRPRPQRMPRP, the “shrunken log2 fold change” value stood at 0.0753.

Regarding RRIRMRPPRLPRPRPRPDYKPRP, the “shrunken log2 fold change” value stood at 0.248. Regarding RRIRYRPPRLPRPRPRPYIGPRP, the “shrunken log2 fold change” value is -0.0919. Regarding RRIRMRPPRLPRPRPRPIPPPRP, the “shrunken log2 fold change” value came to 0.369. Regarding RRIRVRPPRLPRPRPRPNCLPRP, the “shrunken log2 fold change” value is -0.105. To RRIRCRPPRLPRPRPRPAQDPRP belongs 0.289.

Regarding RRIRWRPPRLPRPRPRPVLCPRP, the “shrunken log2 fold change” value was 0.341. To RRIRQRPPRLPRPRPRPWKGPRP belongs 0.013; to RRIRIRPPRLPRPRPRPAYRPRP, -0.611; to RRIRWRPPRLPRPRPRPIAPPRP, 0.45. To RRIRERPPRLPRPRPRPFLHPRP belongs -0.332. The result for RRIRRRPPRLPRPRPRPGPNPRP reads 0.251; that for RRIRKRPPRLPRPRPRPSCFPRP, 0.109. For the sequence RRIRWRPPRLPRPRPRPNDSPRP, the “shrunken log2 fold change” value is -0.134. The result for RRIRSRPPRLPRPRPRPACCPRP reads 0.303; that for RRIRYRPPRLPRPRPRPNVIPRP, -0.338; that for RRIRNRPPRLPRPRPRPTCSPRP, -0.261. With RRIRNRPPRLPRPRPRPALTPRP, the “shrunken log2 fold change” value is -0.158. For the sequence RRIRDRPPRLPRPRPRPLCQPRP, the “shrunken log2 fold change” value stood at 0.0964. Consider RRIRYRPPRLPRPRPRPSDYPRP, for which the “shrunken log2 fold change” value is -1.34. Take RRIRRRPPRLPRPRPRPAIKPRP: the “shrunken log2 fold change” value worked out at 0.304. The result for RRIRQRPPRLPRPRPRPYTMPRP reads -0.128; that for RRIRQRPPRLPRPRPRPYILPRP, -0.773. To RRIRRRPPRLPRPRPRPVQIPRP belongs 0.14. The result for RRIRERPPRLPRPRPRPGFRPRP reads 0.231; that for RRIRMRPPRLPRPRPRPAYAPRP, 0.0769. Regarding RRIRLRPPRLPRPRPRPRGQPRP, the “shrunken log2 fold change” value is 0.533. To RRIRFRPPRLPRPRPRPMRMPRP belongs -0.0248.

Consider RRIRVRPPRLPRPRPRPQMIPRP, for which the “shrunken log2 fold change” value is -0.425.

As for RRIRDRPPRLPRPRPRPKMAPRP, the “shrunken log2 fold change” value came out at 0.38. The result for RRIRRRPPRLPRPRPRPIKMPRP reads -0.0923. The result for RRIRERPPRLPRPRPRPCQRPRP reads 0.0562; that for RRIRHRPPRLPRPRPRPVWCPRP, -0.0641; that for RRIRARPPRLPRPRPRPYIQPRP, -0.873. Turning to RRIRRRPPRLPRPRPRPIHEPRP, the “shrunken log2 fold change” value turned out to be 0.086. The result for RRIRWRPPRLPRPRPRPRWAPRP reads 0.662; that for RRIRSRPPRLPRPRPRPISMPRP, -0.145; that for RRIRVRPPRLPRPRPRPRRCPRP, -0.0137.

Take RRIRCRPPRLPRPRPRPNFTPRP: the “shrunken log2 fold change” value was -0.158. To RRIRRRPPRLPRPRPRPQEWPRP belongs -0.0466; to RRIRFRPPRLPRPRPRPKFAPRP, 0.102.

For RRIRGRPPRLPRPRPRPRMMPRP, the “shrunken log2 fold change” value was found to be 0.882. To RRIRRRPPRLPRPRPRPGCHPRP belongs 0.119; to RRIRTRPPRLPRPRPRPMVYPRP, -0.09; to RRIRPRPPRLPRPRPRPPSHPRP, 0.0789. On to RRIRVRPPRLPRPRPRPIPPPRP, for which the “shrunken log2 fold change” value is -0.2.
